The target of data set [1] is T1, HuR (ELAV, ELAVL1) (Homo sapiens, UniProt Q15717 SEQ:1-326). The data set is described as follows: EMSA. The following applies: tags: N-terminal GST (pGEX-5X-1), E. coli BL21, label: 32P-UTP.
Data set [2] has as its target T1, HuR (ELAV, ELAVL1). Description: SPR; GST-HuR captured on CM5 chip; HBS-EP buffer. The conditions noted are these: tags: N-terminal GST (pGEX-5X-1), E. coli BL21; 3-pronged stem-loop (predicted). The source says:
Specific protein-RNA interactions were detected by Surface Plasmon Resonance using the BIACore X optical biosensor (Pharmacia Biosensor AB, Upsala, Sweden).
The GST-fusion proteins of interest (GST alone or GST-ELAV (HuR)) were immobilized onto the surface of a CM5 Chip (Pharmacia Biosensor AB, Upsala, Sweden) by using the BIACore GST Capture Kit (Pharmacia Biosensor AB, Upsala, Sweden), according to the manufacturers instructions, until a change of at least 1,000 resonance units (RU) was detectable.
1 μg of in vitro transcribed RNA (using the T7/SP6 Riboprobe Kit, Promega, Mannheim, Germany) was diluted in a total volume of 80 μl HBS-EP buffer (10 mM HEPES, 150 mM NaCl, 3 mM EDTA, 0.005% (v/v) polysorbate 20) and was allowed to flow over the chip at a flow rate of 50μl/minute. The standard running buffer was HBS-EP buffer. The sensor surface was regenerated between assays by injecting 30 μl of 0.5 M NaCl to remove bound analyte.

Here are results for three molecules from patent US20020165186, “Compounds that affect CD83 expression, pharmaceutical compositions comprising said compounds and methods for identifying said compounds” (published 2002).

T1 sequence (Q15717 whole entry T180A): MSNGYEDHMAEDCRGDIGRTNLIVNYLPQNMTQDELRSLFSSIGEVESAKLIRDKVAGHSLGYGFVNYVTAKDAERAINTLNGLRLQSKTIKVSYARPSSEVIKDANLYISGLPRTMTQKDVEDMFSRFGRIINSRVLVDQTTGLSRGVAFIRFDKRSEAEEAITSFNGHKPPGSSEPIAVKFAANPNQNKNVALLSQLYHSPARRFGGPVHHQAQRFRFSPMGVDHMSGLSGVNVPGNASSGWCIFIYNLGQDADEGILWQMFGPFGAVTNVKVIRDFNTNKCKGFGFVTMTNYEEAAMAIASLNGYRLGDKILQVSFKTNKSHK

B1: CD83 RNA nt466-618 (stem-loop-2) (ssRNA)
RNA: UUAACACUCAUCAUUUUCACUUGUAAGUUUGCACGGCUACAGAGUAUCUUCCCAGAUUUUUCUAAAGCUGGCAUGGAACGAGCUUUUCUCCCAGUUACCUCCCCAAAUAAGCAUUUAGGGCUAGUGACUCCUCACAAGACAGAACUGGUAUGA
In the case of B1, in the data set with HuR (ELAV, ELAVL1) [1] (3-pronged stem-loop (predicted)), the binding result is “binds”.

B2: CD83 RNA nt295-465 (stem-loop-1) (ssRNA)
RNA: AGCUGCAACUCGGGGACAUACAGGUGCACUCUGCAGGACCCGGAUGGGCAGAGAAACCUAAGUGGCAAGGUGAUCUUGAGAGUGACAGGAUGCCCUGCACAGCGUAAAGAAGAGACUUUUAAGAAAUACAGAGCGGAGAUUGUCCUGCUGCUGGCUCUGGUUAUUUUCUAC
As to B2, the binding result in the data set with HuR (ELAV, ELAVL1) [1] (single stem-loop (nt412-465, predicted)) was “binds”.

B3: CD83 RNA nt466-615 (stem-loop-2) (ssRNA)
RNA: UUAACACUCAUCAUUUUCACUUGUAAGUUUGCACGGCUACAGAGUAUCUUCCCAGAUUUUUCUAAAGCUGGCAUGGAACGAGCUUUUCUCCCAGUUACCUCCCCAAAUAAGCAUUUAGGGCUAGUGACUCCUCACAAGACAGAACUGGUA
For B3, the binding result with HuR (ELAV, ELAVL1) [2] is given as “binds”.
